Source: PMC11182334 (Cell, 2024)

Tests used:
[1] = target: recombinant untagged VP6 of bluetongue virus, wild type (bluetongue virus (serotype of the cDNA not stated)); experiment: cryo-EM structure
[2] = target: the molecule itself; experiment: cryo-EM structure
[3] = target: the molecule itself; experiment: SEC + AUC
[4] = target: T1, VP3 (WT, co-expressed with VP6);VP6 (WT) (Bluetongue virus;Bluetongue virus, UniProt D8V886;D8V892 1-901;1-329, |); experiment: cryo-EM
T1 sequence 1: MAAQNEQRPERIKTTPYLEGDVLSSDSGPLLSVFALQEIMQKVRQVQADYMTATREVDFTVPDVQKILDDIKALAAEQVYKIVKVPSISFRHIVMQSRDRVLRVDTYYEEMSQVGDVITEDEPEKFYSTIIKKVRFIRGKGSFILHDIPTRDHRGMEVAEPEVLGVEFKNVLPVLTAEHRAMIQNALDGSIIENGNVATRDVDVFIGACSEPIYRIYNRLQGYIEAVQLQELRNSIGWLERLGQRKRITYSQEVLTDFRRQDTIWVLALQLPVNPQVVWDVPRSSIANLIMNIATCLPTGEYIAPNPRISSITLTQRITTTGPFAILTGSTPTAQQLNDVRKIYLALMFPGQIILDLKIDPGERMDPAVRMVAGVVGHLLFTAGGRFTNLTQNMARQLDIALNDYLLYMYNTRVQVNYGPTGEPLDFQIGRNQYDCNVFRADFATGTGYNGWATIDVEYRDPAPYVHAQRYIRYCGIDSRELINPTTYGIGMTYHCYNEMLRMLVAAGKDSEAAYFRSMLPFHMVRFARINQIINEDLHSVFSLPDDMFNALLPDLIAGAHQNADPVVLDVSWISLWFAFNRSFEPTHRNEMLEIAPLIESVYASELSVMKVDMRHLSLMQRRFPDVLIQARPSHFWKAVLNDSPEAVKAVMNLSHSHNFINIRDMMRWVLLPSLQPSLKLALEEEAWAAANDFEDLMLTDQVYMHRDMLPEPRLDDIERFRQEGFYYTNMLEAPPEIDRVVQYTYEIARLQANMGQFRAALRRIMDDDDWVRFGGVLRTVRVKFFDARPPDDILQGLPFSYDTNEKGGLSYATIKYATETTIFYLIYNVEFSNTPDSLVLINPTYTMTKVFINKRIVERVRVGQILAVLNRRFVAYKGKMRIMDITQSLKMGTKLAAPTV
T1 sequence 2: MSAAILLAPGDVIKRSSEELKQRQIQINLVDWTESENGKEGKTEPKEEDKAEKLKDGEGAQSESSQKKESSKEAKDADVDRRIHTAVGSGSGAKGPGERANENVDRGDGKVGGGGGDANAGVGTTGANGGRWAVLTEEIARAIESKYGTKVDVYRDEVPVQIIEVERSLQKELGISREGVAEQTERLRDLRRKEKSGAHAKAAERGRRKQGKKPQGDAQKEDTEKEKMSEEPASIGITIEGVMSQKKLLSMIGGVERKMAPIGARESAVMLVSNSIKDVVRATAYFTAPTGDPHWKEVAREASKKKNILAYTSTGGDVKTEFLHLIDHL

[5] = target: T1, VP3 (WT, co-expressed with VP6);VP6 (WT); experiment: EMSA

recombinant untagged VP6 of bluetongue virus, wild type (natural protein)
stoichiometry N [1]: 5

B1: recombinant His-tagged VP3 of bluetongue virus, wild type (natural protein)
chain: MAAQNEQRPERIKTTPYLEGDVLSSDSGPLLSVFALQEIMQKVRQVQADYMTATREVDFTVPDVQQILDDIKALAAAQVYKIVKVPSTSFRHIVTQSRDRVLRVDTYYEEMSQVGDVITEDEPEKFYSTIIKKVRFIRGKGSFILHDIPARDHRGMEVAEPEVLGVEFKNVLPVLTAEHRAMIQNALDGSIIENGNVATRDVDVFIGACSEPFYRIYNRFQGYIEAVQLQELRNSIGWLERLGQRKRITYSQEVLTDFRRQDMIWVLALQLPVNPQVVWDVPRSSIANLIMNIATCLPTGEYIAPNPRISSITLTQRITTTGPFAILTGSTPTAQQLNDVRKIYLALMFPGQIILDLKIDPGERMDPAVRMVAGVVGHLLFTAGGRFTNLTQNMARQLDIALNDYLLYMYNTRVQVNYGPTGEPLDFQIGRNQYDCNVFRADFATGTGYNGWATIDVEYRDPAPYVHAQRYIRYCGIDSRELINPTTYGIGMTYHCYNEMLRMLVAAGKDSEAAYFRSMLPFHMVRFARINQIINEDLHSVFSLPDDMFNALLPDLIAGAHQNADPVVLDVSWISLWFAFNRSFEPTHRNEMLEIAPLIESVYASELSVMKVDMRHLSLMQRRFPDVLIQARPSHFWKAVLNDSPEAVKAVMNLSHSHNFINIRDMMRWVLLPSLQPSLKLVLEEEAWAAANDFEDLMLTDQVYMHRDMLPEPRLDDIERFRQEGFYYTNMLEAPPEIDRVVQYTYEIARLQANMGQFRAALRRIMDDDDWIGFGGVLRTVRVKFFDARPPDDILQGLPFSYDTNEKGGLSYATIKYATETTIFYLIYNVEFSNTPDSLVLINPTYTMTKVFINKRIVERVRVGQILAVLNRRFVAYKGKMRIMDITQSLKMGTKLAAPTV
stoichiometry N [2]: 4
stoichiometry N [3]: ~4

UUUUUUUUUUUUUUUUUUUUUUUUUUUUUUUUUUUUUUUU (ssRNA) [40 nt poly-U ssRNA]
binding result [4]: binds

GUUAAAAAAUCGCAUA (ssRNA) [Cy5-labeled 16 nt ssRNA]
apparent K (half saturation) [5]: 192 nM
